Assay results taken from patent US20100290984A1 (DUKE UNIVERSITY, published 2010).
No end group written: not given here.

B1: PepI-58 scFv (scFv)
scFv: EVQLVQSGGGLVQPGGSLRLSCSASGFTFSNYAMHWVRRAPGKGLEYVSAISSNGGSTYYADSVKGRFTISRDNPKNTLYLQMNSLRAEDTAVYYCVRGRPYPLDVWGKGTLVTVSSGGGGSGGGGSGGGGSQSVLTQPPSASGTPGQRVTISCSGSSSNIESHAVNWYQHLPGSAPKLLIYFNNHRPSGVPERFSASKSGTSASLAISGLQSEDEADYYCAAWDDSLNGPVFGGGTKLTVLGQPKAAPS
notes: also called anti-MRP3 PepI-58scFv; not shown: Myc and hexahistidine tags from the pET 22(+) vector, at the C terminus
B2: PepI-25 scFv (scFv)
scFv: EVQLVESGGGLVQPGGSLRLSCAASGFTFSNYAMTWVRQAPGKGLEWVSAISGSGGSTYYADSVKGRFTISRDNSKNTLYLQMNSLRAEDTAVYYCATGDLDYWGQGTTVTVSSGGGGSGGGGSGGGGSQTVVTQEPSLTVSPGGTVTLTCASSTGAVTSGYYPNWFQQKPGQAPRALIYSTSNKHSWTPARFSGSLLGGKAALTLSGVQPEDEAEYYCLLYYGGAQPYVVFGGGTKVTVLGQPKAAPS
notes: not shown: Myc and hexahistidine tags from the pET 22(+) vector
B3: PepII-89 scFv (scFv)
scFv: QVQLVQSGGGVVQPGRSLRLSCAASGFTFSSYGMHWVRQDPGKGLMWVSSISTDGSATKYADSVKGRFTISRDNAKNTVSLQMNSLRAEDTAVYYCVGGFLGWWGQGTLVTVSSGGGGSGGGGSGGGGSEIVLTQSPATLSLSPGERATLSCRASQSVGGSYLAWYQQKPGQAPRLLIYGASRRATGIPARFSGSGSGTDFTLTISSLQPEDFASYFCQQTNTFPLTFGGGTKVEIKRTVAAPTAAA
notes: also called anti-MRP3 PepII-89scFv; not shown: Myc and hexahistidine tags from the pET 22(+) vector, at the C terminus
B4: PepIII-23 scFv (scFv)
scFv: EVQLVQSGGGLVKPGGSLRLSCAASGFSFNNYAGSWVRQAPGKGLEWISALSSGGDTTYYADSVAGRFAISRDNSKNTLYLQMHSLRAEDTAIYYCAQDPVVGAPGYFGLWGRGTLVTVSSGGGGSGGGGSGGGGSQSVLTQPPSASGSSGQSVTISCTGTSSDIGGYNYVSWYQQHPGKAPKLMIYEVSKRPSGVSDRFSGSKSGSTASLHISGLQAEDEADYYCSSYSSNNAPYVFGSGTKVAVLGQPKAAPS
notes: as for B2

How the values were obtained:
[1] = molecular target: T1, MRP3-derived peptide I (PepI) (human, conjugated to BSA in the ELISA; biotinylated in BIAcore and on streptavidin beads (site of attachment not stated)); assay: SPR, BIAcore 3000, KA=kassoc/kdiss
T1 construct: Same peptide used as BSA conjugate (ELISA) and as biotinylated peptide (SPR on SA chip, bead assay); also called PepI antigen
T1 peptide: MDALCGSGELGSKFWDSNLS
Method: (§1) Kinetic measurements of purified recombinant scFv were made by surface plasmon resonance using a BIAcore 3000 Biosensor (BIAcore, Piscataway, N.J.). Chips were functionalized with biotinylated peptides derived from MRP3 protein by using HEPES balanced salt solution (HBSS buffer), 10 mM HEPES pH 7.4, 150 mM NaCl, 3.4 mM EDTA, and 0.05% BIAcore surfactant P20. The scFv antibodies were diluted in HBSS buffer and passed over the SA chip at concentrations of 25, 200, and 1000 nM. The flow rate was kept at 30 μl/min, and the injection time was 3 min. Binding constants were calculated from the nonlinear fitting curve by using the BlAevaluation software (BIAcore).
(§2) The association and dissociation rates from the sensograms were in the same range for PepI-58 scFv, PepI-25 scFv, and PepII-89 scFv. […] The final binding affinity was determined by the software developed by BIAcore based on the kinetics calculated among various concentrations of antibody. PepI-25 scFv had kassoc=1.3×10⁵ (mol/L-s)⁻¹, kdiss=2.8×10⁻³ s⁻¹, and KA=kassoc/kdiss, was 4.6×10⁷ (mol/L)⁻¹.

[2] = molecular target: T1, MRP3-derived peptide I (PepI); assay: SPR, BIAcore 3000, biotinylated peptide on SA chip, scFv in flow
Method: as §1

[3] = molecular target: T2, human multidrug resistance protein 3 (MRP3) (human, UniProt O15438 1-1527); assay: indirect flow cytometry on viable D2159 cells (surface), anti-His-FITC detection
T2 construct: whole, on cells; ABC transporter; endogenous on human malignant glioma cell lines D54MG, D247MG and pediatric GBM line D2159; also called cell-surface-expressed MRP3; native MRP3

[4] = molecular target: T3, MRP3-derived peptide IV (PepIV) (human, also: conjugated to BSA, biotinylated, site not given here); assay: ELISA, plate coated with MRP3-derived peptides conjugated with BSA, purified scFv, HRP anti-His detection
T3 construct: Same peptide used as BSA conjugate (ELISA) and as biotinylated peptide (SPR)
T3 peptide: KIRSPQSFFDTTPSGRI
Method: (§3) A 96-well plate was coated with 10 μg/ml of specific MRP3-derived peptides conjugated with BSA as antigen and BSA and other appropriate control antigens. The rest of the protocol was as described above except that the purified scFv antibodies were added in serial dilution to the wells, and the secondary Ab used was HRP-conjugated anti-His antibody at 1:5000 dilution (Invitrogen, Carlsbad, Calif.). To check for cross-reactivity of the recombinant scFvs, the ELISA plate was coated with different peptide antigens (i.e., PepI, PepII, PepIII, PepIV) derived from MRP3, conjugated to BSA with other controls. ScFv antibodies were then added at a 10 μg/ml concentration to each well.

[5] = molecular target: T4, MRP3-derived peptide III (PepIII) (human, also: conjugated to BSA, biotinylated, site not given here); assay: as above
T4 construct: Same peptide used as BSA conjugate (ELISA) and as biotinylated peptide (SPR)
T4 peptide: DAMADSRQNNTSLRL
Method: as §3

[6] = molecular target: T5, MRP3-derived peptide II (PepII) (human, also: conjugated to BSA, biotinylated, site not given here); assay: as above
T5 construct: Same peptide used as BSA conjugate (ELISA) and as biotinylated peptide (SPR on SA chip, bead assay); also called PepII antigen
T5 peptide: VHTENPDLTPCF
Method: as §3

[7] = molecular target: T3, MRP3-derived peptide IV (PepIV); assay: ELISA, peptide-BSA coated, purified scFv, anti-His-HRP
Method: as §3

[8] = molecular target: T4, MRP3-derived peptide III (PepIII); assay: as above
Method: as §3

[9] = molecular target: T5, MRP3-derived peptide II (PepII); assay: as above
Method: as §3

[10] = molecular target: T1, MRP3-derived peptide I (PepI); assay: SPR, BIAcore 3000, biotinylated pep-I on SA chip, scFv 25 to 1000 nM
Method: as §1, §2

[11] = molecular target: T5, MRP3-derived peptide II (PepII); assay: SPR, BIAcore 3000, KA=kassoc/kdiss
Method: as §1, §2

[12] = molecular target: T5, MRP3-derived peptide II (PepII); assay: SPR, BIAcore 3000, biotinylated peptide on SA chip, scFv in flow
Method: as §1

[13] = molecular target: T1, MRP3-derived peptide I (PepI); assay: ELISA, plate coated with MRP3-derived peptides conjugated with BSA, purified scFv, HRP anti-His detection
Method: as §3

[14] = molecular target: T4, MRP3-derived peptide III (PepIII); assay: SPR, BIAcore, biotinylated peptide on chip
[15] = molecular target: T1, MRP3-derived peptide I (PepI); assay: ELISA, peptide-BSA coated, purified scFv, anti-His-HRP
Method: as §3

[16] = molecular target: T2, human multidrug resistance protein 3 …; assay: indirect flow cytometry on MRP3-expressing glioma cells
Method: To determine that the purified anti-MRP3 scFvs bind native MRP3 expressed on the surface of tumor cells, indirect fluorescence-activated cell sorting (FACS) was performed using MRP3-expressing D54MG and D247MG cells under both permeabilized and nonpermeabilized conditions. Indirect FACS analysis of MRP3 expression on the surface of viable malignant pediatric GBM cell line D2159 growing as neuroshperes was also performed.
For cytometric analysis of PepI-58, PepI-25, PepII-89, PepIII-23, and PepIV-17 scFv antibodies, D54MG and D247MG cells (1×10⁶/test) were harvested with 0.02% EDTA/PBS and fixed by resuspending them in 2-4 ml of 10% formaldehyde. After washing, the cells were blocked with 10% normal goat serum (NGS) with and without saponin for 20 min. Saponin was added to facilitate the permeabilization for examining all […] receptors. Cells were washed twice and incubated with anti-his (C-terminus)-FITC conjugated antibody (1:5000, Invitrogen, Carlsbad, Calif.) for an hour at room temperature. Finally, cells were suspended in 0.5% PFA/BSA and freshly analyzed by using a Becton Dickinson FACSort with CellQuest software (Becton Dickinson, San Jose, Calif.).

Binder | Ka [1] [M⁻¹] | binding result [3] | binding result [4] | binding result [5] | binding result [7] | binding result [9] | other results
B1 | 2.1e+07 | binds | no binding (tested: 10 ug/ml) | no binding (tested: 10 ug/ml) | – | – | koff [2]: 0.0034 s⁻¹; binding result [6]: no binding (tested: 10 ug/ml)
B2 | 4.6e+07 | binds | – | – | no binding (tested: 10 µg/ml) | no binding (tested: 10 µg/ml) | binding result [8]: no binding (tested: 10 µg/ml); koff [10]: 0.0028 s⁻¹
B3 | – | – | no binding (tested: 10 ug/ml) | no binding (tested: 10 ug/ml) | – | – | Ka [11]: 1e+07 M⁻¹; koff [12]: 0.005 s⁻¹; binding result [13]: no binding (tested: 10 ug/ml)
B4 | – | – | – | – | no binding (tested: 10 µg/ml) | no binding (tested: 10 µg/ml) | binding result [14]: binds; binding result [15]: no binding (tested: 10 µg/ml); binding result [16]: no binding
